In patent US20120294879A1, “CONSENSUS SEQUENCE FOR INFLUENZA A VIRUS” (priority 2009, published 2012) one finds IFN-γ ELISpot and lowest concentration of peptide giving positive ELISpot response data, which are given here for 16 substances.

Assay [1] concerns the target HLA-DR2 (DRB1*1501), chimeric DRA1*0101:I-Eα and DRB1*1501:I-Eβ, as expressed in HLA-DR2 transgenic mice (human; mouse) (UniProt Q8BHN5). The assay is described as follows: cell-based or functional assay.
Assay [2] concerns the target HLA-B7 (B*0702), chimeric heavy chain with HLA-B*0702 α1 and α2 domains and H-2Kd murine α3 domain, (human; mouse), B*07:0. The assay is described as follows: cell-based or functional assay.

Sequence of UniProt Q8BHN5 (Q8BHN5 whole entry, stated change not applied): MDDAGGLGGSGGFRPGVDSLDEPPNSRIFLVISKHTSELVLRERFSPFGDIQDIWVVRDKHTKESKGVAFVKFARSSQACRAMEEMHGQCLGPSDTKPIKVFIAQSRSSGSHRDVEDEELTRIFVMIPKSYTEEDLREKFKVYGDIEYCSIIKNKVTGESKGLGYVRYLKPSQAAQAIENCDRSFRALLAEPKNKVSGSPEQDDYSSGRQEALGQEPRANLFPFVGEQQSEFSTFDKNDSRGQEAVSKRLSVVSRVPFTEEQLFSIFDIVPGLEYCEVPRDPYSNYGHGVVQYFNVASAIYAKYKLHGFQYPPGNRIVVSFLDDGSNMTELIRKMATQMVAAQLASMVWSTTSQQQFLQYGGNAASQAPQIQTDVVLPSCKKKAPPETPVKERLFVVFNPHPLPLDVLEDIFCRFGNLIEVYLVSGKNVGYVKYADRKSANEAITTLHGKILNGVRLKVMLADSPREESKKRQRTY

With “NP 133-149 peptide of influenza virus A/New York/348/2003 (H1N1)”, in assay [1], the IFN-γ ELISpot at 10 µg/ml peptide, splenocytes of immunized HLA transgenic mice was 238 and the lowest concentration of peptide giving positive ELISpot response was 0.1 µg/mL.
In assay [1], “M1 169-185 peptide of influenza virus A/New York/348/2003 (H1N1)” returned an IFN-γ ELISpot at 10 µg/ml peptide, splenocytes of immunized HLA transgenic mice of 56 and a lowest concentration of peptide giving positive ELISpot response of 0.1 µg/mL.
In assay [2], “PB2 500-516 peptide of influenza virus A/New York/348/2003 (H1N1)” displayed an IFN-γ ELISpot at 10 µg/ml peptide, splenocytes of immunized HLA transgenic mice of 184 and a lowest concentration of peptide giving positive ELISpot response of 0.1 µg/mL.
In assay [2], “PB1 328-344 peptide of influenza virus A/New York/348/2003 (H1N1)” showed an IFN-γ ELISpot at 10 µg/ml peptide, splenocytes of immunized HLA transgenic mice of 60 and a lowest concentration of peptide giving positive ELISpot response of 10 µg/mL.
In assay [1], “PB1 554-570 peptide of influenza virus A/New York/348/2003 (H1N1)” displayed an IFN-γ ELISpot at 10 µg/ml peptide, splenocytes of immunized HLA transgenic mice of 109 and a lowest concentration of peptide giving positive ELISpot response of 1 µg/mL.
For “PB1 358-374 peptide of influenza virus A/New York/348/2003 (H1N1)”, in that order: 84 and 0.1 µg/mL.
“PB1 525-541 peptide of influenza virus A/New York/348/2003 (H1N1)”: in assay [1], the IFN-γ ELISpot at 10 µg/ml peptide, splenocytes of immunized HLA transgenic mice was 159 and the lowest concentration of peptide giving positive ELISpot response worked out at 0.1 µg/mL.
With “PB1 465-481 peptide of influenza virus A/New York/348/2003 (H1N1)”, in assay [1], the IFN-γ ELISpot at 10 µg/ml peptide, splenocytes of immunized HLA transgenic mice was 231 and the lowest concentration of peptide giving positive ELISpot response stood at 1 µg/mL.
“PB1 352-368 peptide of influenza virus A/New York/348/2003 (H1N1)”: in assay [1], the IFN-γ ELISpot at 10 µg/ml peptide, splenocytes of immunized HLA transgenic mice is 52 and the lowest concentration of peptide giving positive ELISpot response is 1 µg/mL.
In assay [1], “NP 402-418 peptide of influenza virus A/New York/348/2003 (H1N1)” yielded an IFN-γ ELISpot at 10 µg/ml peptide, splenocytes of immunized HLA transgenic mice of 207 and a lowest concentration of peptide giving positive ELISpot response of 0.1 µg/mL.
Regarding “PB2 630-646 peptide of influenza virus A/New York/348/2003 (H1N1)”, in assay [1], the IFN-γ ELISpot at 10 µg/ml peptide, splenocytes of immunized HLA transgenic mice came to 104 and the lowest concentration of peptide giving positive ELISpot response amounted to 0.1 µg/mL.
In the same order, the values of “PB1 519-535 peptide of influenza virus A/New York/348/2003 (H1N1)” are 75 and 0.1 µg/mL.
Turning to “PB1 560-576 peptide of influenza virus A/New York/348/2003 (H1N1)”, in assay [1], the IFN-γ ELISpot at 10 µg/ml peptide, splenocytes of immunized HLA transgenic mice amounted to 194 and the lowest concentration of peptide giving positive ELISpot response was determined as 0.1 µg/mL.
In assay [1], “NP 408-424 peptide of influenza virus A/New York/348/2003 (H1N1)” came in with an IFN-γ ELISpot at 10 µg/ml peptide, splenocytes of immunized HLA transgenic mice of 110 and a lowest concentration of peptide giving positive ELISpot response of 1 µg/mL.
In assay [1], “PB2 524-540 peptide of influenza virus A/New York/348/2003 (H1N1)” registered an IFN-γ ELISpot at 10 µg/ml peptide, splenocytes of immunized HLA transgenic mice of 151 and a lowest concentration of peptide giving positive ELISpot response of 0.1 µg/mL.
In assay [1], “PB2 548-564 peptide of influenza virus A/New York/348/2003 (H1N1)” displayed an IFN-γ ELISpot at 10 µg/ml peptide, splenocytes of immunized HLA transgenic mice of 96.
